Legend:
HLA-A*69:01 [1] = experiment: IEDB peptide-MHC binding, purified MHC/competitive/fluorescence; filed as Kd, often an IC50 or EC50 that approximates it; ≥ and ≤ were set here for values at or beyond the usual limits of such assays
HLA-B*15:17 = experiment: as above
HLA-B*46:01 = experiment: as above
HLA-B*57:01 = experiment: as above
HLA-B*51:01 = experiment: as above
HLA-B*18:01 = experiment: as above
HLA-B*39:01 = experiment: as above
HLA-B*27:03 = experiment: as above
HLA-A*02:01 [2] = experiment: as above
HLA-B*15:01 [3] = experiment: IEDB peptide-MHC binding, purified MHC/direct/fluorescence; filed as Kd, often an IC50 or EC50 that approximates it; ≥ and ≤ were set here for values at or beyond the usual limits of such assays
HLA-A*68:02 = experiment: as above
HLA-A*24:03 [4] = experiment: as above
HLA-A*02:03 = experiment: as above
HLA-A*03:01 [5] = experiment: as above
HLA-A*02:19 = experiment: as above
HLA-A*02:16 = experiment: as above
HLA-A*02:11 = experiment: as above
HLA-A*02:12 [6] = experiment: as above
HLA-A*11:01 [7] = experiment: IEDB peptide-MHC binding, purified MHC/competitive/fluorescence; ≥ and ≤ were set here for values at or beyond the usual limits of such assays
HLA-A*03:01 [8] = experiment: as above
HLA-A*31:01 [9] = experiment: IEDB peptide-MHC binding, purified MHC/competitive/fluorescence; filed as Kd, often an IC50 or EC50 that approximates it; ≥ and ≤ were set here for values at or beyond the usual limits of such assays; conditions: source organism: Encephalitozoon cuniculi GB-M1
HLA-A*11:01 [10] = experiment: as above
HLA-A*03:01 [11] = experiment: as above; conditions: source organism: Encephalitozoon cuniculi GB-M1
HLA-A*01:01 [12] = experiment: as above
HLA-A*29:02 = experiment: IEDB peptide-MHC binding, purified MHC/direct/fluorescence; filed as Kd, often an IC50 or EC50 that approximates it; ≥ and ≤ were set here for values at or beyond the usual limits of such assays
HLA-A*26:01 [13] = experiment: as above
HLA-A*24:03 [14] = experiment: IEDB peptide-MHC binding, purified MHC/competitive/fluorescence; filed as Kd, often an IC50 or EC50 that approximates it; ≥ and ≤ were set here for values at or beyond the usual limits of such assays; conditions: source organism: Lechiguanas virus
HLA-A*26:01 [15] = experiment: as above
HLA-A*02:01 [16] = experiment: IEDB peptide-MHC binding, purified MHC/competitive/fluorescence; ≥ and ≤ were set here for values at or beyond the usual limits of such assays
HLA-A*02:12 [17] = experiment: IEDB peptide-MHC binding, purified MHC/competitive/fluorescence; filed as Kd, often an IC50 or EC50 that approximates it; ≥ and ≤ were set here for values at or beyond the usual limits of such assays; conditions: source organism: Shigella dysenteriae Sd197
HLA-B*15:01 [18] = experiment: IEDB peptide-MHC binding, purified MHC/competitive/fluorescence; ≥ and ≤ were set here for values at or beyond the usual limits of such assays; conditions: source organism: Sudan ebolavirus
HLA-A*69:01 [19] = experiment: IEDB peptide-MHC binding, purified MHC/direct/fluorescence; filed as Kd, often an IC50 or EC50 that approximates it; ≥ and ≤ were set here for values at or beyond the usual limits of such assays; conditions: source organism: Yersinia pestis Nepal516
HLA-A*01:01 [20] = experiment: as above; conditions: source organism: Yersinia pestis Nepal516
HLA-B*07:02 = experiment: as above; conditions: source organism: Yersinia pestis Nepal516
HLA-B*27:05 = experiment: as above; conditions: source organism: Yersinia pestis Nepal516
HLA-A*31:01 [21] = experiment: as above; conditions: source organism: Yersinia pestis Nepal516
HLA-B*08:01 = experiment: as above; conditions: source organism: Yersinia pestis Nepal516
HLA-B*40:01 = experiment: as above; conditions: source organism: Yersinia pestis Nepal516
HLA-B*35:01 = experiment: as above; conditions: source organism: Yersinia pestis
HLA-A*11:01 [22] = experiment: as above; conditions: source organism: Yersinia pestis Nepal516
HLA-B*44:02 = experiment: as above; conditions: source organism: Yersinia pestis Nepal516
HLA-B*58:01 = experiment: as above; conditions: source organism: Yersinia pestis Nepal516
HLA-A*02:01 [23] = experiment: as above; conditions: source organism: Yersinia pestis
[24] = source organism: Araucaria virus
[25] = source organism: Vaccinia virus WR
[26] = source organism: Zaire ebolavirus
[27] = source organism: New York virus
[28] = source organism: Sudan ebolavirus
[29] = source organism: Lechiguanas virus
[30] = source organism: Rio Mamore hantavirus
[31] = source organism: Salmonella enterica subsp. enterica serovar Typhi
[32] = source organism: Vaccinia virus
[33] = source organism: Yersinia pestis
[34] = source organism: Yersinia pestis Nepal516

AFMATNKAY
Kd (HLA-A*69:01 [1]; [24]): ≥ 20 µM | Kd (HLA-B*15:17; [24]): ≥ 20 µM | Kd (HLA-B*46:01; [24]): ≥ 20 µM | Kd (HLA-B*57:01; [24]): ≥ 20 µM | Kd (HLA-B*51:01; [24]): ≥ 20 µM | Kd (HLA-B*18:01; [24]): ≥ 20 µM | Kd (HLA-B*39:01; [24]): ≥ 20 µM | Kd (HLA-B*27:03; [24]): ≥ 20 µM | Kd (HLA-A*02:01 [2]; [24]): ≥ 20 µM | Kd (HLA-B*15:01 [3]; source organism: Itapua hantavirus): 0.0944 µM | Kd (HLA-A*68:02; [24]): ≥ 20 µM | Kd (HLA-A*24:03 [4]; [24]): ≥ 20 µM | Kd (HLA-A*02:03; [24]): ≥ 20 µM | Kd (HLA-A*03:01 [5]; [24]): ≥ 20 µM | Kd (HLA-A*02:19; [24]): ≥ 20 µM | Kd (HLA-A*02:16; [24]): ≥ 20 µM | Kd (HLA-A*02:11; [24]): ≥ 20 µM | Kd (HLA-A*02:12 [6]; [24]): ≥ 20 µM

AFYTRVLKP
IC50 (HLA-A*11:01 [7]; [25]): 24.2 µM | IC50 (HLA-A*03:01 [8]; [25]): ≥ 202 µM

AGLITGGRR
IC50 (HLA-A*11:01 [7]; [26]): 6.55 µM | IC50 (HLA-A*03:01 [8]; [26]): 69.9 µM

CVNDGGLFY
Kd (HLA-A*31:01 [9]): 0.692 µM | Kd (HLA-A*11:01 [10]; source organism: Encephalitozoon cuniculi GB-M1): 0.11 µM | Kd (HLA-A*03:01 [11]): 1.01 µM

FTDPEIVAE
Kd (HLA-A*01:01 [12]; source organism: Escherichia coli O139:H28 str. E24377A): ≥ 20 µM

FVKDWMDRI
Kd (HLA-A*69:01 [1]; [27]): ≥ 20 µM | Kd (HLA-B*15:17; [27]): ≥ 20 µM | Kd (HLA-B*46:01; [27]): ≥ 20 µM | Kd (HLA-B*57:01; [27]): ≥ 20 µM | Kd (HLA-B*51:01; [27]): ≥ 20 µM | Kd (HLA-B*18:01; [27]): ≥ 20 µM | Kd (HLA-B*39:01; [27]): ≥ 20 µM | Kd (HLA-B*27:03; [27]): ≥ 20 µM | Kd (HLA-A*02:01 [2]; [27]): ≥ 20 µM | Kd (HLA-A*29:02; source organism: Choclo virus): ≥ 20 µM | Kd (HLA-A*24:03 [4]; source organism: Choclo virus): ≥ 20 µM | Kd (HLA-A*26:01 [13]; source organism: Hantavirus Monongahela-3): 0.0656 µM | Kd (HLA-A*03:01 [5]; source organism: Choclo virus): ≥ 20 µM | Kd (HLA-A*02:19; source organism: Choclo virus): ≥ 20 µM | Kd (HLA-A*02:16; source organism: Choclo virus): ≥ 20 µM | Kd (HLA-A*02:12 [6]; source organism: Choclo virus): ≥ 20 µM

GVRGFPRCR
IC50 (HLA-A*11:01 [7]; [28]): 33.2 µM | IC50 (HLA-A*03:01 [8]; [28]): 1.12 µM

ITDRLFFK
Kd (HLA-A*11:01 [10]; source organism: Influenza A virus (A/California/04/2009(H1N1))): 0.175 µM

LQPSDTLLF
Kd (HLA-A*69:01 [1]; [29]): ≥ 20 µM | Kd (HLA-B*15:17; [29]): ≥ 20 µM | Kd (HLA-B*46:01; [29]): ≥ 20 µM | Kd (HLA-A*24:03 [14]): 0.0049 µM | Kd (HLA-B*57:01; [29]): ≥ 20 µM | Kd (HLA-B*51:01; [29]): ≥ 20 µM | Kd (HLA-A*26:01 [15]; [29]): ≥ 20 µM | Kd (HLA-B*18:01; [29]): ≥ 20 µM | Kd (HLA-B*39:01; [29]): ≥ 20 µM | Kd (HLA-B*27:03; [29]): ≥ 20 µM | Kd (HLA-A*02:01 [2]; [29]): ≥ 20 µM | Kd (HLA-A*68:02; [30]): ≥ 20 µM | Kd (HLA-A*29:02; [30]): ≥ 20 µM | Kd (HLA-A*02:03; [30]): ≥ 20 µM | Kd (HLA-A*03:01 [5]; [30]): ≥ 20 µM | Kd (HLA-A*02:19; [30]): ≥ 20 µM | Kd (HLA-A*02:16; [30]): ≥ 20 µM | Kd (HLA-A*02:11; [30]): ≥ 20 µM | Kd (HLA-A*02:12 [6]; [30]): ≥ 20 µM

MVAYMLER
Kd (HLA-A*11:01 [10]; source organism: Paramagnetospirillum magnetotacticum MS-1): 3.25 µM

MVEASGGRY
Kd (HLA-A*01:01 [12]; [31]): 0.122 µM | Kd (HLA-A*26:01 [15]; [31]): 1.42 µM

SLMEMDYER
IC50 (HLA-A*11:01 [7]; [32]): 1.9 µM | IC50 (HLA-A*03:01 [8]; [32]): ≥ 155 µM | IC50 (HLA-A*02:01 [16]; [32]): 2.2 µM

SMIYFFHHY
Kd (HLA-A*01:01 [12]; source organism: Homo sapiens): ≥ 20 µM

SVFSRPLPL
Kd (HLA-A*02:01 [2]; source organism: Shigella dysenteriae Sd197): ≤ 0.0001 µM | Kd (HLA-A*02:12 [17]): 0.184 µM

TQVEQHHRR
IC50 (HLA-A*11:01 [7]; [26]): 1.67 µM | IC50 (HLA-A*03:01 [8]; [26]): ≥ 138 µM

VIYRGVNFA
IC50 (HLA-B*15:01 [18]): ≥ 89.1 µM | IC50 (HLA-A*11:01 [7]; [28]): 25.1 µM | IC50 (HLA-A*03:01 [8]; [28]): 5.02 µM | IC50 (HLA-A*02:01 [16]; [28]): 3.89 µM

YLHRDIFDI
Kd (HLA-B*15:01 [3]; [33]): 8.64 µM | Kd (HLA-A*69:01 [19]): ≥ 20 µM | Kd (HLA-A*01:01 [20]): ≥ 20 µM | Kd (HLA-B*07:02): ≥ 20 µM | Kd (HLA-B*27:05): ≥ 20 µM | Kd (HLA-A*31:01 [21]): ≥ 20 µM | Kd (HLA-B*08:01): ≥ 20 µM | Kd (HLA-B*40:01): ≥ 20 µM | Kd (HLA-A*24:03 [4]; [33]): ≥ 20 µM | Kd (HLA-B*35:01): 0.113 µM | Kd (HLA-A*26:01 [13]; [34]): ≥ 20 µM | Kd (HLA-A*11:01 [22]): ≥ 20 µM | Kd (HLA-A*03:01 [5]; [34]): ≥ 20 µM | Kd (HLA-B*44:02): ≥ 20 µM | Kd (HLA-B*58:01): ≥ 20 µM | Kd (HLA-A*02:01 [23]): 0.0365 µM

— the Immune Epitope Database (IEDB)
